Laboratory results published in US20030125296, “Insulin-responsive DNA binding protein-1 and methods to regulate insulin-responsive genes” (published 2003).

Key:
[1] = target: T1, IRDBP-1 C-terminal 1503 bp coding region (Trx-IRDBP-1) (Rattus norvegicus, UniProt Q5ZQU0 SEQ:548-1047); experiment: EMSA; self-competed; supershifted by anti-IRDBP-1 cAb; printed probe sequence from Example 7; conditions: tags: His6-thioredoxin fusion (pET-32a)
Text: (§1) This band was competed by the IGFBP-3 IRE, but not by the unrelated NFκB oligonucleotide (FIG. 26, left panel). In addition, the gel-shift band was supershifted with the anti-IRDBP-1 cAb antibody, but not with preimmune serum (FIG. 26, right panel).

[2] = target: T1, IRDBP-1 C-terminal 1503 bp coding …; experiment: competition; did not compete IGFBP-3 IRE band; conditions: tags: His6-thioredoxin fusion (pET-32a)
Text: as §1

T1 sequence (Q5ZQU0 904-1403): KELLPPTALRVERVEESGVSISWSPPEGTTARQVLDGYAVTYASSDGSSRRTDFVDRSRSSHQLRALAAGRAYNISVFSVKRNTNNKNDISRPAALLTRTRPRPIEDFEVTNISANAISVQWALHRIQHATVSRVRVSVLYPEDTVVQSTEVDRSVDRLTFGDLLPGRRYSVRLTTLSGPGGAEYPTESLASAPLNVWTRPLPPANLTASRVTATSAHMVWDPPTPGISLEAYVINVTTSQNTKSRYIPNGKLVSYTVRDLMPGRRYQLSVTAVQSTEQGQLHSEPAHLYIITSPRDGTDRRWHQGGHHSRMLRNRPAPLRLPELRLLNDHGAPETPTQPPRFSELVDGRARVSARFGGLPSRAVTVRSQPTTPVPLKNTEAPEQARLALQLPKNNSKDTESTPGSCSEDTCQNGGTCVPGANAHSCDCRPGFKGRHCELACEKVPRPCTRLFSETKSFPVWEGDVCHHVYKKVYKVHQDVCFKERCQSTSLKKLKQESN

B1: IGFBP-3 IRE oligo (Example 7) (dsDNA)
DNA 1: AATTCAAGGGTATCCAGGAAAGTCTCCTTCAAG
DNA 2: CTTGAAGGAGACTTTCCTGGATACCCTTGAATT
B1: binds [1].

B2: NFkB consensus (dsDNA)
DNA 1: GGGACTTTCCGGGACTTTCC
DNA 2: GGAAAGTCCCGGAAAGTCCC
B2: no binding [2].
